Reference: patent US20260232827A1 (Zymeworks, published 2026)

Target: T1, Construct 7 (NaPi2b del 317-326) (human, UniProt O95436 1-690)
T1 construct: Deletion construct on HEK293-6e cells; also called CL_#29921
T1 sequence: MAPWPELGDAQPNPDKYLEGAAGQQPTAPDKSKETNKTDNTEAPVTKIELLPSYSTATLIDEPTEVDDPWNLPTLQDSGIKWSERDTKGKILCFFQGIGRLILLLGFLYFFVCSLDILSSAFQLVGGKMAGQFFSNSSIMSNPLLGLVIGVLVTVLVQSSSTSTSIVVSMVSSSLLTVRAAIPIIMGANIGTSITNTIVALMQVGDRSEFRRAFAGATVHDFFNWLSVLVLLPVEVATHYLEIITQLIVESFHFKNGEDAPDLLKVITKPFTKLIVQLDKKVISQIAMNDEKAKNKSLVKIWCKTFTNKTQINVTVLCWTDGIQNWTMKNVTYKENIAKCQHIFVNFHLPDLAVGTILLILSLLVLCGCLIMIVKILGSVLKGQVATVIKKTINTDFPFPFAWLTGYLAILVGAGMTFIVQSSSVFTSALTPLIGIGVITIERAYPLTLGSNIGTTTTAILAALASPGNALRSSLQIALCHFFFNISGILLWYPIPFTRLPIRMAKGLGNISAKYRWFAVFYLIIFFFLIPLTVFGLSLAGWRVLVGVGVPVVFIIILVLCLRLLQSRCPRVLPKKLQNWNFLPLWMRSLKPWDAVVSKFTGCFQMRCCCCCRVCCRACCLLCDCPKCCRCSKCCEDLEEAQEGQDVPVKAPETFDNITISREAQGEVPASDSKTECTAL
Assay: flow cytometry, HEK293-6e cells transfected with Construct 7
Procedure: Following transfection, cells were seeded at 50,000 cells/well in conical-bottom 96-well plates and treated with a serial dilution of test antibody for 24 hours at 4° C. to prevent internalization. Cells were treated with final concentrations of all humanized antibodies of 200, 20, or 2 nM. Cells were treated with final concentrations of the reference anti-NaPi2a rabbit antibody of 50, 5, or 0.5 nM. […] Following incubation and washing, fluorescence was detected by flow cytometry on a BD LSRFortessa™ Cell Analyzer (BD Biosciences, Franklin Lake, NJ) with 1,000 minimum events collected per well. […] Background-subtracted AF647 Mean Fluorescence Intensity (MFI) values were calculated by subtracting the average MFI of three technical replicates of unstained (no primary antibody) cells.

B1: v18993 (lifastuzumab), reference anti-NaPi2b antibody (antibody, human IgG1, kappa)
heavy 1: GEVQLVESGGGLVQPGGSLRLSCAASGFSFSDFAMSWVRQAPGKGLEWVATIGRVAFHTYYPDSMKGRFTISRDNSKNTLYLQMNSLRAEDTAVYYCARHRGFDVGHFDFWGQGTLVTVSSASTKGPSVFPLAPSSKSTSGGTAALGCLVKDYFPEPVTVSWNSGALTSGVHTFPAVLQSSGLYSLSSVVTVPSSSLGTQTYICNVNHKPSNTKVDKKVEPKSCDKTHTCPPCPAPELLGGPSVFLFPPKPKDTLMISRTPEVTCVVVDVSHEDPEVKFNWYVDGVEVHNAKTKPREEQYNSTYRVVSVLTVLHQDWLNGKEYKCKVSNKALPAPIEKTISKAKGQPREPQVYVYPPSRDELTKNQVSLTCLVKGFYPSDIAVEWESNGQPENNYKTTPPVLDSDGSFALVSKLTVDKSRWQQGNVFSCSVMHEALHNHYTQKSLSLSPG
heavy 2: not shown
light: GDIQMTQSPSSLSASVGDRVTITCRSSETLVHSSGNTYLEWYQQKPGKAPKLLIYRVSNRFSGVPSRFSGSGSGTDFTLTISSLQPEDFATYYCFQGSFNPLTFGQGTKVEIKRTVAAPSVFIFPPSDEQLKSGTASVVCLLNNFYPREAKVQWKVDNALQSGNSQESVTEQDSKDSTYSLSSTLTLSKADYEKHKVYACEVTHQGLSSPVTKSFNRGEC
binding result: no binding (tested: 200 nM)
